The values that follow come from the supplement of paper PMC7877785.

The nature of the data set: self-splicing fitness, log relative to wild type (ln ratio); higher = more splicing; Tetrahymena group I intron in knt gene, E. coli kanamycin selection, DiMSum; sequences stand for … in CUCUCU…GGAGGGAAAAGUUAUCAGGCAUGCACCUGGUAGCUAGUCUUUAAACCAAUAGAUUGCAUCGGUUUAAAAGGCAAGACCGUCAAAUUGCGGGAAAGGGGUCAACAGCCGUUCAGUACCAAGUCUCAGGGGAAACUUUGAGAUGGCCUUGCAAAGGGUAUGGUAAUAAGCUGACGGACAUGGUCCUAACCACGCAGCCAAGUCCUAAGUCAACAGAUCUUCUGUUGAUAUGGAUGCAGUUCACAGACUAAAUGUCGGUCGGGGAAGAUGUAUUCUUCUCAUAAGAUAUAGUCGGACCUCUCCUUAAUGGGAGCUAGCGGAUGAAGUGAUGCAACACUGGAGCCGCUGGGAACUAAUUUGUAUGCGAAAGUAUAUUGAUUAGUUUUGGAGUACUCGUGGUCG
The procedure, abridged:
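Pooled colonies went to amplicon sequencing on an Illumina HiSeq 2500 after six replicate transformations. The plates were LB agar with 100 μg/mL carbenicillin, 50 μM IPTG and 0.2% rhamnose, with or without 25 μg/mL kanamycin, incubated overnight at 37°C or 30°C. The E. coli BL21(DE3) library had all eight P1ex-region intron nucleotides randomised, the intron placed in the knt kanamycin-resistance gene on pET-22b(+). DiMSum fitness is the error-weighted combination of replicate fold changes, kanamycin against none, normalised to wild type.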

± gives the uncertainty stated by the source.

For CUCCAGCAAUAUUACGAGCC, the “self-splicing fitness (ln)” value by setting is: (30 °C) -2.73 ± 0.22; (37 °C) -2.15 ± 0.28.

With CUCCAGCAAUAUUACGAGUU, the “self-splicing fitness (ln)” value is -2.87 ± 0.17 (30 °C) and -2.66 ± 0.29 (37 °C).

Turning to CUCCAGCAAUAUUACGAUGC, the “self-splicing fitness (ln)” value is, setting by setting: (30 °C) -2.81 ± 0.25; (37 °C) -2.95 ± 0.32.

On to CUCCAGCAAUAUUACGCAAU, for which the “self-splicing fitness (ln)” value by setting is: (30 °C) -4.47 ± 0.41; (37 °C) -2.43 ± 0.2.

As for CUCCAGCAAUAUUACGCCUG, the “self-splicing fitness (ln)” value is -3.25 ± 0.21 (30 °C) and -2.71 ± 0.27 (37 °C).

As for CUCCAGCAAUAUUACGCGUU, the “self-splicing fitness (ln)” value was -3.65 ± 0.17 (30 °C) and -2.01 ± 0.14 (37 °C).

With CUCCAGCAAUAUUACGCUCC, the “self-splicing fitness (ln)” value (30 °C) is -2.73 ± 0.3.

Regarding CUCCAGCAAUAUUACGCUUC, the “self-splicing fitness (ln)” value was -3.31 ± 0.24 (30 °C) and -2.27 ± 0.23 (37 °C).

On to CUCCAGCAAUAUUACGUAUU, for which the “self-splicing fitness (ln)” value is -4.45 ± 0.15 (30 °C) and -3.21 ± 0.18 (37 °C).

Take CUCCAGCAAUAUUACGUGCU: the “self-splicing fitness (ln)” value is, setting by setting: (30 °C) -3.06 ± 0.11; (37 °C) -2.58 ± 0.14.

Turning to CUCCAGCAAUAUUACGUGGC, the “self-splicing fitness (ln)” value runs as follows: (30 °C) -3.82 ± 0.15; (37 °C) -3.4 ± 0.24.

As for CUCCAGCAAUAUUACGUUAU, the “self-splicing fitness (ln)” value was -3.58 ± 0.22 (30 °C) and -3.38 ± 0.28 (37 °C).

Regarding CUCGAGCAAUAUUACGCAGG, the “self-splicing fitness (ln)” value was -3.62 ± 0.3 (30 °C) and -2.36 ± 0.25 (37 °C).

CUCGAGCAAUAUUACGCCAA: the “self-splicing fitness (ln)” value reads like this: (30 °C) -3.29 ± 0.41; (37 °C) -2.04 ± 0.46.

Regarding CUCGAGCAAUAUUACGCGCA, the “self-splicing fitness (ln)” value (30 °C) was -2.79 ± 0.48.

For the sequence CUCGAGCAAUAUUACGCUCA, the “self-splicing fitness (ln)” value is, setting by setting: (30 °C) -1.96 ± 0.27; (37 °C) -2.15 ± 0.45.

As for CUCGAGCAAUAUUACGCUGA, the “self-splicing fitness (ln)” value reads like this: (30 °C) -2.4 ± 0.43; (37 °C) -0.491 ± 0.3.

On to CUCGAGCAAUAUUACGCUUU, for which the “self-splicing fitness (ln)” value by setting is: (30 °C) -4.13 ± 0.46; (37 °C) -2.31 ± 0.31.

Regarding CUCGAGCAAUAUUACGGAAA, the “self-splicing fitness (ln)” value reads like this: (30 °C) -2.9 ± 0.28; (37 °C) -1.37 ± 0.16.

In the case of CUCGAGCAAUAUUACGGAAC, the “self-splicing fitness (ln)” value is -3.24 ± 0.24 (30 °C) and -1.98 ± 0.25 (37 °C).

For the sequence CUCGAGCAAUAUUACGGAGC, the “self-splicing fitness (ln)” value is, setting by setting: (30 °C) -3.66 ± 0.26; (37 °C) -3.22 ± 0.3.

CUCGAGCAAUAUUACGGGAU: the “self-splicing fitness (ln)” value was -3.84 ± 0.36 (30 °C) and -1.93 ± 0.3 (37 °C).

On to CUCGAGCAAUAUUACGGGCA, for which the “self-splicing fitness (ln)” value was -2.35 ± 0.36 (30 °C) and 0.194 ± 0.26 (37 °C).

Regarding CUCGAGCAAUAUUACGGUAU, the “self-splicing fitness (ln)” value (30 °C) was -2.54 ± 0.14 and the “self-splicing fitness (ln)” value (37 °C) was -2.62 ± 0.21.

CUCGAGCAAUAUUACGGUUU: the “self-splicing fitness (ln)” value (30 °C) was -3.87 ± 0.27.

In the case of CUCGAGCAAUAUUACGUACG, the “self-splicing fitness (ln)” value by setting is: (30 °C) -3.49 ± 0.22; (37 °C) -2.86 ± 0.28.

CUCGAGCAAUAUUACGUCCU: the “self-splicing fitness (ln)” value (30 °C) was -2.54 ± 0.24 and the “self-splicing fitness (ln)” value (37 °C) was -2.55 ± 0.48.

As for CUCGAGCAAUAUUACGUCUG, the “self-splicing fitness (ln)” value runs as follows: (30 °C) -2.84 ± 0.19; (37 °C) -1.2 ± 0.18.

Turning to CUCGAGCAAUAUUACGUGAG, the “self-splicing fitness (ln)” value reads like this: (30 °C) -2.41 ± 0.17; (37 °C) -2.32 ± 0.23.

For CUCGAGCAAUAUUACGUGCG, the “self-splicing fitness (ln)” value (30 °C) is -3.08 ± 0.2 and the “self-splicing fitness (ln)” value (37 °C) is -2.91 ± 0.17.

Regarding CUCUAGCAAUAUUACGAAAG, the “self-splicing fitness (ln)” value (30 °C) is -2.34 ± 0.2 and the “self-splicing fitness (ln)” value (37 °C) was -2.11 ± 0.34.

Take CUCUAGCAAUAUUACGACAA: the “self-splicing fitness (ln)” value (37 °C) is -2.35 ± 0.28.

In the case of CUCUAGCAAUAUUACGAUAU, the “self-splicing fitness (ln)” value (30 °C) was -3.45 ± 0.24 and the “self-splicing fitness (ln)” value (37 °C) was -3.2 ± 0.25.

As to CUCUAGCAAUAUUACGAUCU, under “37 °C”, the “self-splicing fitness (ln)” value was -1.9 ± 0.3.

For CUCUAGCAAUAUUACGCAGA, the “self-splicing fitness (ln)” value is, setting by setting: (30 °C) -4.08 ± 0.31; (37 °C) -3.59 ± 0.22.
